Laboratory results published in paper PMC9482650, “Quantitative fragmentomics allow affinity mapping of interactomes” (Nature Communications, 2022).

Experiments:
Assay in all cases: holdup assay
Parameters in all cases: key: below the threshold = too weak to quantify, mostly under pKd 3.1 to 4
[1] = target: Inadl_4, Q8NI35
[2] = target: GRIP2_3, Q9C0E4
[3] = target: PARD3_3, Q8TEW0
[4] = target: PDLIM1, O00151
[5] = target: IL16_3, Q14005
[6] = target: T1, LNX2_2, Q8N448
T1 sequence (Q8N448 334-432, limits assumed, looked up): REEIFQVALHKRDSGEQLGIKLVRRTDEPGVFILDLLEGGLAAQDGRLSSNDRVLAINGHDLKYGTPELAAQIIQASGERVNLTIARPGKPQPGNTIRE

[7] = target: T2, PCLO, Q9Y6V0
T2 sequence (Q9Y6V0 4491-4600, limits assumed, looked up): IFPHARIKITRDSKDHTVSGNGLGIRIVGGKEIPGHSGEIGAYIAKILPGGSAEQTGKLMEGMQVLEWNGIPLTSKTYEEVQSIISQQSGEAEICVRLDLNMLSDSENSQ

[8] = target: IL16_4, Q14005
[9] = target: LIMK2, P53671
[10] = target: HTRA2, O43464
[11] = target: FRMPD2_1, Q68DX3
[12] = target: T3, MPP2, Q14168
T3 sequence (Q14168 180-250, limits assumed, looked up): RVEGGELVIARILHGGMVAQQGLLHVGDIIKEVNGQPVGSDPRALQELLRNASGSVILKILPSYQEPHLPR

[13] = target: T4, TX1BP3, O14907
T4 sequence (O14907 10-122, limits assumed, looked up): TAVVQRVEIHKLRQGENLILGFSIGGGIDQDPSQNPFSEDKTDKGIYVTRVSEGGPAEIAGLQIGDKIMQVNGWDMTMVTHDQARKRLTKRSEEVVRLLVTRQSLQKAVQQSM

[14] = target: T5, SNTA1, Q13424
T5 sequence (Q13424 82-180, limits assumed, looked up): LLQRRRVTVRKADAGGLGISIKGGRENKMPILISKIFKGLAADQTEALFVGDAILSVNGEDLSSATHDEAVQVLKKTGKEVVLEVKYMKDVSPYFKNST

[15] = target: SNX27, Q96L92
[16] = target: T6, PDZRN3_1, Q9UPQ7
T6 sequence (Q9UPQ7 244-349, limits assumed, looked up): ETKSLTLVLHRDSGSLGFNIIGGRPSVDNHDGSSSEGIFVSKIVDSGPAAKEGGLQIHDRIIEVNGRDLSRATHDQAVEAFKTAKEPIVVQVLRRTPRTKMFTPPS

[17] = target: T7, LIN7B, Q9HAP6
T7 sequence (Q9HAP6 88-185, limits assumed, looked up): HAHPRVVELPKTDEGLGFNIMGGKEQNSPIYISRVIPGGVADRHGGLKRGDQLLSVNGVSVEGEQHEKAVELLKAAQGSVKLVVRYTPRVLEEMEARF

[18] = target: IL16_1, Q14005
[19] = target: T8, FRMPD1, Q5SYB0
T8 sequence (Q5SYB0 52-145, limits assumed, looked up): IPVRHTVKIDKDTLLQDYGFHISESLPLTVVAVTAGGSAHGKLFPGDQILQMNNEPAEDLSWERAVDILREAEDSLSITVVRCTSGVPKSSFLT

[20] = target: T9, SNTG2, Q9NY99
T9 sequence (Q9NY99 68-166, limits assumed, looked up): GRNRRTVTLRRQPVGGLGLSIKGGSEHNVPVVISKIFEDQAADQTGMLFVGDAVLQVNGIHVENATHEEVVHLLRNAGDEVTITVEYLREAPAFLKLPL

[21] = target: T10, DLG3_1, Q92796
T10 sequence (Q92796 125-227, limits assumed, looked up): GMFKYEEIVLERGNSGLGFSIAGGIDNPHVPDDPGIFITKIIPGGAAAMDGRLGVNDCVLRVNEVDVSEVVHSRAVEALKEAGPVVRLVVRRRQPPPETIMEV

[22] = target: Inadl_8, Q8NI35
[23] = target: HTRA1, Q92743
[24] = target: DLG4_3, P78352
[25] = target: DLG4_2, P78352
[26] = target: T11, RHPN1, Q8TCX5
T11 sequence (Q8TCX5 508-602, limits assumed, looked up): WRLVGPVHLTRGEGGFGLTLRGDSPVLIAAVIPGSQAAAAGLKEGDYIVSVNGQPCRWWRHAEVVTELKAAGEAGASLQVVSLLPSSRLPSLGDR

[27] = target: NHERF4_1, Q86UT5-2
[28] = plain residues with an end cap or a label only (N-terminal biotin on a linker: ado-ado)
[29] = modified: phospho on T at position -2 from the C-terminal residue
[30] = modified: phospho on T at position -1 from the C-terminal residue

Sequence of DLG4_3, P78352 (P78352 306-403): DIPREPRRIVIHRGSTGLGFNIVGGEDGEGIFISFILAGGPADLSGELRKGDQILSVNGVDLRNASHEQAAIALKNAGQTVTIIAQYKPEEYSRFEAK
Sequence of LIMK2, P53671 (P53671 143-248): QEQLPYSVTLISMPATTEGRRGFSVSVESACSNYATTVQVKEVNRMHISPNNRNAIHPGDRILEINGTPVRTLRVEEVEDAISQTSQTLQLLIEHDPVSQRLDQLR
Sequence of HTRA1, Q92743 (Q92743 360-477): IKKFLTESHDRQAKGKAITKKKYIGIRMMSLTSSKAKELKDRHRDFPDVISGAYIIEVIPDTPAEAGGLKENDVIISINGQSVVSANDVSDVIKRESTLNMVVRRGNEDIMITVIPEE
Sequence of HTRA2, O43464 (O43464 355-458): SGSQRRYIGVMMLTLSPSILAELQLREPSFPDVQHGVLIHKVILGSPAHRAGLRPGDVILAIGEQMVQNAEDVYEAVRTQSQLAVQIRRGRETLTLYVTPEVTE
Sequence of FRMPD2_1, Q68DX3 (Q68DX3 770-861): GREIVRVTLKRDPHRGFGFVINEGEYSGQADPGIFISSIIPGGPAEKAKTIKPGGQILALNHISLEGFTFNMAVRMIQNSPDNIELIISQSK
Sequence of NHERF4_1, Q86UT5-2 (Q86UT5 other isoform, or with tags, fused parts or gaps): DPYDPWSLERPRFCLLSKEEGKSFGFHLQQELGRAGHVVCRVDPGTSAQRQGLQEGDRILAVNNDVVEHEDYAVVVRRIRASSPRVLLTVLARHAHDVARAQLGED
Sequence of Inadl_8, Q8NI35 (Q8NI35 1425-1530): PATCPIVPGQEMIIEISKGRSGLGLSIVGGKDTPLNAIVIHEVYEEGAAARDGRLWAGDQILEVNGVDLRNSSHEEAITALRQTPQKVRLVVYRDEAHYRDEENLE
Sequence of PDLIM1, O00151 (O00151 1-87): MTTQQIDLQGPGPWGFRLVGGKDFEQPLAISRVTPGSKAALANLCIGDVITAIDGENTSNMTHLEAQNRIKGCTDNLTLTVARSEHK
Sequence of IL16_4, Q14005 (Q14005 1229-1329): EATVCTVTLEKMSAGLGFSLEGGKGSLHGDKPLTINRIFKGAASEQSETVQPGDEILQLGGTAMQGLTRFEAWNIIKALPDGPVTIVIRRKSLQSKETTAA
Sequence of Inadl_4, Q8NI35 (Q8NI35 547-651): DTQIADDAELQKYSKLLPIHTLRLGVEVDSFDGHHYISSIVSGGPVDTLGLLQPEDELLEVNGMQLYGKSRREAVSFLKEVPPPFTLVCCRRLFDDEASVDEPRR
Sequence of DLG4_2, P78352 (P78352 155-259): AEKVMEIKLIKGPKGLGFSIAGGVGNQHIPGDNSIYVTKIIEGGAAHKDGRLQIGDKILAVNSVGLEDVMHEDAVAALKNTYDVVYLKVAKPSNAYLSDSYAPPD
Sequence of PARD3_3, Q8TEW0 (Q8TEW0 582-685): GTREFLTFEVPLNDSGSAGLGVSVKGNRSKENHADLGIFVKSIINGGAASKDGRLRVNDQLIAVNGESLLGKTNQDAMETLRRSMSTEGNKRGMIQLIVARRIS
Sequence of IL16_1, Q14005 (Q14005 210-306): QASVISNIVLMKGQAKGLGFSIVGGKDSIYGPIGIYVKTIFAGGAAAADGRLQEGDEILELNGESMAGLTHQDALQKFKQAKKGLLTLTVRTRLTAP
Sequence of IL16_3, Q14005 (Q14005 1107-1207): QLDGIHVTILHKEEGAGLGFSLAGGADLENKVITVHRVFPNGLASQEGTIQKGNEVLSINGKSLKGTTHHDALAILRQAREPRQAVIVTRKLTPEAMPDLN
Sequence of GRIP2_3, Q9C0E4 (Q9C0E4 238-339): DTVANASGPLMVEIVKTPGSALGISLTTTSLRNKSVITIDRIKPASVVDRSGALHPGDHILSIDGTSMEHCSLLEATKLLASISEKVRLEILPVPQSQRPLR

For LSEFKAMDSF [CTNNA2, P26232], which pKd [1, 28] is on record?
The pKd was “below the threshold”.

And the pKd [2, 28]?
Its pKd is “below the threshold”.

What about the pKd [3, 28] of the same binder?
Its pKd is “below the threshold”.

And the pKd [4, 28]?
The pKd was “below the threshold”.

What about the pKd [5, 28] of the same binder?
Its pKd is “below the threshold”.

What about the pKd [6, 28] of the same binder?
Its pKd is “below the threshold”.

What about the pKd [7, 28] of the same binder?
The pKd was “below the threshold”.

And the pKd [8, 28]?
Its pKd is “below the threshold”.

What about the pKd [9, 28] of the same binder?
The pKd was “below the threshold”.

What about the pKd [10, 28] of the same binder?
The pKd was “below the threshold”.

What about the pKd [11, 28] of the same binder?
The pKd was “below the threshold”.

What about the pKd [12, 28] of the same binder?
The pKd was “below the threshold”.

What about the pKd [13, 28] of the same binder?
The pKd was “below the threshold”.

And the pKd [14, 28]?
The pKd was “below the threshold”.

And the pKd [15, 28]?
Its pKd is “below the threshold”.

And the pKd [16, 28]?
The pKd was “below the threshold”.

And the pKd [17, 28]?
The pKd was 3.85.

And the pKd [18, 28]?
Its pKd is “below the threshold”.

And the pKd [19, 28]?
Its pKd is “below the threshold”.

And the pKd [20, 28]?
Its pKd is “below the threshold”.

What about the pKd [21, 28] of the same binder?
Its pKd is “below the threshold”.

And the pKd [22, 28]?
The pKd was “below the threshold”.

And the pKd [23, 28]?
Its pKd is “below the threshold”.

What about the pKd [24, 28] of the same binder?
Its pKd is “below the threshold”.

What about the pKd [25, 28] of the same binder?
Its pKd is “below the threshold”.

What about the pKd [26, 28] of the same binder?
Its pKd is “below the threshold”.

What about the pKd [27, 28] of the same binder?
The pKd was 4.37.

SMLNRRTTPV [CACNG4, Q9UBN1] was tested. Which pKd [1, 28] did it give?
Its pKd is “below the threshold”.

And the pKd [2, 28]?
Its pKd is “below the threshold”.

What about the pKd [3, 28] of the same binder?
The pKd was “below the threshold”.

What about the pKd [4, 28] of the same binder?
The pKd was “below the threshold”.

And the pKd [5, 28]?
Its pKd is “below the threshold”.

What about the pKd [6, 28] of the same binder?
Its pKd is “below the threshold”.

And the pKd [7, 28]?
The pKd was “below the threshold”.

And the pKd [8, 28]?
Its pKd is “below the threshold”.

What about the pKd [9, 28] of the same binder?
The pKd was “below the threshold”.

And the pKd [10, 28]?
Its pKd is “below the threshold”.

And the pKd [11, 28]?
Its pKd is 3.54.

What about the pKd [12, 28] of the same binder?
Its pKd is “below the threshold”.

And the pKd [13, 28]?
Its pKd is 4.85.

And the pKd [14, 28]?
The pKd was 3.86.

And the pKd [15, 28]?
The pKd was 4.93.

What about the pKd [16, 28] of the same binder?
The pKd was 4.35.

What about the pKd [17, 28] of the same binder?
The pKd was “below the threshold”.

What about the pKd [18, 28] of the same binder?
Its pKd is “below the threshold”.

And the pKd [19, 28]?
The pKd was “below the threshold”.

And the pKd [20, 28]?
Its pKd is “below the threshold”.

What about the pKd [21, 28] of the same binder?
Its pKd is 3.71.

And the pKd [22, 28]?
The pKd was 4.29.

And the pKd [23, 28]?
The pKd was 4.36.

What about the pKd [24, 28] of the same binder?
Its pKd is 4.85.

What about the pKd [25, 28] of the same binder?
The pKd was 4.88.

And the pKd [26, 28]?
Its pKd is “below the threshold”.

What about the pKd [27, 28] of the same binder?
Its pKd is “below the threshold”.

RRVRKLPSTTL [RPS6KA1_-2P, Q15418] was tested. Which pKd [1, 29] did it give?
The pKd was “below the threshold”.

What about the pKd [2, 29] of the same binder?
The pKd was “below the threshold”.

What about the pKd [3, 29] of the same binder?
Its pKd is “below the threshold”.

And the pKd [4, 29]?
The pKd was “below the threshold”.

And the pKd [5, 29]?
Its pKd is “below the threshold”.

And the pKd [6, 29]?
The pKd was “below the threshold”.

What about the pKd [7, 29] of the same binder?
Its pKd is “below the threshold”.

What about the pKd [8, 29] of the same binder?
Its pKd is “below the threshold”.

What about the pKd [9, 29] of the same binder?
Its pKd is “below the threshold”.

What about the pKd [10, 29] of the same binder?
Its pKd is “below the threshold”.

What about the pKd [11, 29] of the same binder?
The pKd was “below the threshold”.

What about the pKd [12, 29] of the same binder?
Its pKd is “below the threshold”.

And the pKd [13, 29]?
Its pKd is “below the threshold”.

And the pKd [14, 29]?
Its pKd is “below the threshold”.

And the pKd [15, 29]?
The pKd was “below the threshold”.

What about the pKd [16, 29] of the same binder?
The pKd was “below the threshold”.

What about the pKd [17, 29] of the same binder?
Its pKd is “below the threshold”.

And the pKd [18, 29]?
The pKd was “below the threshold”.

What about the pKd [19, 29] of the same binder?
The pKd was “below the threshold”.

And the pKd [20, 29]?
The pKd was “below the threshold”.

And the pKd [21, 29]?
Its pKd is “below the threshold”.

What about the pKd [22, 29] of the same binder?
Its pKd is “below the threshold”.

What about the pKd [23, 29] of the same binder?
The pKd was 3.65.

What about the pKd [24, 29] of the same binder?
Its pKd is “below the threshold”.

And the pKd [25, 29]?
Its pKd is “below the threshold”.

What about the pKd [26, 29] of the same binder?
The pKd was “below the threshold”.

What about the pKd [27, 29] of the same binder?
Its pKd is 3.69.

Which results are given for RRVRKLPSTTL [RPS6KA1_-1P, Q15418]?
pKd [1, 30]: below the threshold; pKd [2, 30]: below the threshold; pKd [3, 30]: 3.84; pKd [4, 30]: 4; pKd [5, 30]: below the threshold; pKd [6, 30]: below the threshold; pKd [7, 30]: below the threshold; pKd [8, 30]: below the threshold; pKd [9, 30]: below the threshold; pKd [10, 30]: 3.49; pKd [11, 30]: 3.33; pKd [12, 30]: below the threshold; pKd [13, 30]: 3.87; pKd [14, 30]: 3.85; pKd [15, 30]: 3.92; pKd [16, 30]: 4.26; pKd [17, 30]: 3.56; pKd [18, 30]: 3.46; pKd [19, 30]: below the threshold; pKd [20, 30]: 4.16; pKd [21, 30]: 3.57; pKd [22, 30]: 3.57; pKd [23, 30]: 4.7; pKd [24, 30]: 3.49; pKd [25, 30]: 3.85; pKd [26, 30]: 3.62; pKd [27, 30]: 4.23
